How the values were obtained:
Assay in all cases: double-antibody sandwich ELISA, R001 as detection antibody, against reference products of the different expression systems
[1] = target: E1.16 HPV16 VLPs (Human papillomavirus type 16) (UniProt P03101)
[2] = target: E2.16 HPV16 VLPs (Human papillomavirus type 16) (UniProt P03101)
[3] = target: I1.16 HPV16 VLPs (Human papillomavirus type 16) (UniProt P03101)
[4] = target: Y1.16 HPV16 VLPs (Human papillomavirus type 16) (UniProt P03101)
[5] = target: Y2.16 HPV16 VLPs (Human papillomavirus type 16) (UniProt P03101)

Measured: 抗原/蛋白比值

B1: HPV 16 R001 (antibody, V domains shown)
VH: QSVKESEGRLVTPGTPLTLTCTASGFTMSRYHMTWVRQAPGKGLEWIGIIYARNSDTYYANWAKGRFTISKTSTTVDLKITSPTIEDTATYFCARVDSDSSGAFDRLDLWGQGTLVTVSS
VL: DPMLTQTAASVEVAVGGTVTIKCQASQSIGGYLSWYQQKPGQRPKLLIYRASTLASGVPSRFKGSGSGTEYTLTFSGVECADAAAYYCQQGYTSSDINNAFGGGTEVVVK
1: all assays above

Source: patent CN112125972A
